# Test results: patent publication US20250376538A1
# Changes are numbered by the printed parent chain.
# B1: monovalent one-armed (OA) antibody of anti-FIX(a) mAb1 (antibody, V domains shown, part only)
# VH: EVQLVESGGGLVQPGRSLRLSCAASGFTFHDYAMHWVRQVPGKGLEWVSGISWRGDIGGYVKSVKGRFTISRDNAKNSLYLQMNSLRAEDTALYYCVKSYGSGSFYNAFDSWGQGTLVTVSS
# VL: DIQMTQSPSTLSASVGDRVTITCRASQSISSWLAWYQQKPGKAPKFLIYKGSKADRGTPSRFSGSGSGTEFTLTISSLQPDDFATYYCLEYESYIRTFGQGTKVEIK
# modifications: constant regions and truncated heavy chain not given
# B2: monovalent one-armed (OA) antibody of anti-FIX(a) mAb7 (antibody, V domains shown, part only)
# VH: B1 VH
# VL: B1 VL with R18E, G51A, S52E, A54L
# modifications: constant regions and truncated heavy chain not given
# B3: monovalent one-armed (OA) antibody of anti-FIX(a) mAb2 (antibody, V domains shown, part only)
# VH: B1 VH
# VL: B1 VL with A54Q, E92S
# modifications: constant regions and truncated heavy chain not given
# B4: monovalent one-armed (OA) antibody of anti-FIX(a) mAb4 (antibody, V domains shown, part only)
# VH: B1 VH
# VL: B1 VL with G51S, S52E, A54L
# modifications: constant regions and truncated heavy chain not given
# B5: monovalent one-armed (OA) antibody of anti-FIX(a) mAb8 (antibody, V domains shown, part only)
# VH: B1 VH
# VL: B1 VL with G51A, S52E, A54L
# modifications: constant regions and truncated heavy chain not given
# B6: monovalent one-armed (OA) antibody of anti-FIX(a) mAb6 (antibody, V domains shown, part only)
# VH: B1 VH
# VL: B1 VL with R18E, A54L, E92S
# modifications: constant regions and truncated heavy chain not given
# B7: monovalent one-armed (OA) antibody of anti-FIX(a) mAb3 (antibody, V domains shown, part only)
# VH: B1 VH
# VL: B1 VL with A54T
# modifications: constant regions and truncated heavy chain not given
# B8: monovalent one-armed (OA) antibody of anti-FIX(a) mAb5 (antibody, V domains shown, part only)
# VH: B1 VH
# VL: B1 VL with R18E, S52E, A54L, E92S
# modifications: constant regions and truncated heavy chain not given
# Experiments:
# [1] = target: plasma-derived coagulation Factor IXa (human) (UniProt P00740); experiment: cell-based or functional assay
# [2] = target: plasma-derived coagulation Factor IXa (human) (UniProt P00740); experiment: FXa generation assay; FIXa stimulation by the one-armed antibody at eight concentrations, fitted with the quadratic binding equation
# Sequence of UniProt P00740 (P00740 47-191, chain 1 of 2): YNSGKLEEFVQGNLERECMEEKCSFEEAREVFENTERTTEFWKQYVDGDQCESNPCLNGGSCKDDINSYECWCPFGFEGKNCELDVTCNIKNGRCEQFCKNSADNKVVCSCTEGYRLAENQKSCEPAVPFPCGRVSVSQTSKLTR
# Sequence of UniProt P00740 (P00740 227-461, chain 2 of 2): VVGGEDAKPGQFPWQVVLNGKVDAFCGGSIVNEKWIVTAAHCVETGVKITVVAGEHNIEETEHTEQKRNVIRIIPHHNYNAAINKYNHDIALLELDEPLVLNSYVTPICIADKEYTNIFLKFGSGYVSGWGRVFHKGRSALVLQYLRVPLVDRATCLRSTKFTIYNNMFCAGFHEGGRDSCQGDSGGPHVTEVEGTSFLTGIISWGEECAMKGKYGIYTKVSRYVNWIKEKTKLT
molecule,measurement,setting,value
monovalent one-armed (OA) version of the anti-FIXa antibody of emicizumab (ACE910),Stimulation Index (FXa generation assay; estimated at full FIXa saturation),[1],1370 fold
same,Kd,[2],1.1 µM
B1,Stimulation Index (FXa generation assay; 1599 nM OA antibody),[1],9840 fold
B2,Stimulation Index (FXa generation assay; 851 nM OA antibody),[1],8730 fold
B3,Stimulation Index (FXa generation assay; 5640 nM OA antibody),[1],14200 fold
B4,Stimulation Index (FXa generation assay; 1217 nM OA antibody),[1],10500 fold
B5,Stimulation Index (FXa generation assay; 1276 nM OA antibody),[1],10100 fold
B6,Stimulation Index (FXa generation assay; 3547 nM OA antibody),[1],13500 fold
B7,Stimulation Index (FXa generation assay; 749 nM OA antibody),[1],8650 fold
B8,Stimulation Index (FXa generation assay; 1463 nM OA antibody),[1],11200 fold
